Numbered stars: 1 amine (or outer) side, 2 acyl side, 3 side chain; on linkers, the order of the positions; unused ones are H or OH. Suc = O=C(CCC(=O)[*:2])[*:1]
Biological target: scFv-L-Aff, heterobivalent fusion protein of anti-hapten scFv (clone J42) and anti-HER2 affibody (Z_(HER2:477))
Assay: SPR

Binder: {histamine-Suc}-GSYK-NH2 [hapten peptide, histamine-succinyl-GSYK]
- percent inhibition of the binding of scFv-L-Aff to immobilised hapten: 84%
